Assay results taken from PMC9146136 (2022).

Biological target: anti-mTNFα 3B11 VNAR (soluble, purified)
Test: BLI

koff: 2.69e-05 s⁻¹
B1: extracellular domain of mTNFα (mTNFα ECD, 77-235aa) (domain or fragment)
chain: TLTLRSSSQNSSDKPVAHVVANHQVEEQLEWLSQRANALLANGMDLKDNQLVVPADGLYLVYSQVLFKGQGCPDYVLLTHTVSRFAISYQEKVNLLSAVKSPCPKDTPEGAELKPWYEPIYLGGVFQLEKGDQLSAEVNLPKYLDFAESGQVYFGVIAL
modifications: biotin (biotin-NHS labeling reaction) in the BLI assay only
